Experimental findings from patent publication US20250340603A1, “A METHOD FOR MODULATING PLANT ADAPTATION TRAITS” (CRAG (Centre de Recerca en Agrigenòmica), priority 2021, published 2025) are described below.

To fix the notation:
B1: BRL3 (BRASSINOSTEROID RECEPTOR LIKE 3), full length, fused to a half of YFP (BiFC construct) (receptor)
chain: RRLLSDDVNDTALLTAFKQTSIKSDPTNFLGNWRYGSGRDPCTWRGVSCSSDGRVIGLDLRNGGLTGTLNLNNLTALSNLRSLYLQGNNFSSGDSSSSSGCSLEVLDLSSNSLTDSSIVDYVFSTCLNLVSVNFSHNKLAGKLKSSPSASNKRITTVDLSNNRFSDEIPETFIADFPNSLKHLDLSGNNVTGDFSRLSFGLCENLTVFSLSQNSISGDRFPVSLSNCKLLETLNLSRNSLIGKIPGDDYWGNFQNLRQLSLAHNLYSGEIPPELSLLCRTLEVLDLSGNSLTGQLPQSFTSCGSLQSLNLGNNKLSGDFLSTVVSKLSRITNLYLPFNNISGSVPISLTNCSNLRVLDLSSNEFTGEVPSGFCSLQSSSVLEKLLIANNYLSGTVPVELGKCKSLKTIDLSFNALTGLIPKEIWTLPKLSDLVMWANNLTGGIPESICVDGGNLETLILNNNLLTGSLPESISKCTNMLWISLSSNLLTGEIPVGIGKLEKLAILQLGNNSLTGNIPSELGNCKNLIWLDLNSNNLTGNLPGELASQAGLVMPGSVSGKQFAFVRNEGGTDCRGAGGLVEFEGIRAERLEHFPMVHSCPKTRIYSGMTMYMFSSNGSMIYLDLSYNAVSGSIPLGYGAMGYLQVLNLGHNLLTGTIPDSFGGLKAIGVLDLSHNDLQGFLPGSLGGLSFLSDLDVSNNNLTGPIPFGGQLTTFPLTRYANNSGLCGVPLPPCSSGSRPTRSHAHPKKQSIATGMSAGIVFSFMCIVMLIMALYRARKVQKKEKQREKYIESLPTSGSSSWKLSSVHEPLSINVATFEKPLRKLTFAHLLEATNGFSADSMIGSGGFGDVYKAKLADGSVVAIKKLIQVTGQGDREFMAEMETIGKIKHRNLVPLLGYCKIGEERLLVYEYMKYGSLETVLHEKTKKGGIFLDWSARKKIAIGAARGLAFLHHSCIPHIIHRDMKSSNVLLDQDFVARVSDFGMARLVSALDTHLSVSTLAGTPGYVPPEYYQSFRCTAKGDVYSYGVILLELLSGKKPIDPEEFGEDNNLVGWAKQLYREKRGAEILDPELVTDKSGDVELLHYLKIASQCLDDRPFKRPTMIQVMTMFKELVQVDTENDSLDEFLLKETPLVEESRDKEPTQLSCTKWIDLEDPW
notes: also called BRL3 receptor; AT3G13380; not shown: half of YFP (YN or YC, both directions tested) from vectors pGTQL1211-YN / pGTQL1221-YC

The test system of one experiment is WT (Col-0) seedlings. Description: BRZ220 treatment, hypocotyl elongation growth. Type of experiment: in vivo, Arabidopsis thaliana. The following applies: 1 μM BRZ220 in media, WT plants, 22° C. or 28° C., 6 d, LD. Here is the method: Pharmacological treatments were performed in plates adding hormones/drugs in the media. Chemicals used include; 1 μM BRZ220 (Gift from T. Nakano, RIKEN, Japan) or 50 μM Bikinin (200980, Sigma-Aldrich) for 6-d in control (long days, 22° C.) or high temperature (long days, 28° C.) conditions. Hypocotyl length were measured using the Image J software (v.1.48v) (https-/imagej.nih.gov/ij/). For hypocotyl elongation analysis, seedlings were grown in horizontally placed 0.5MS− media plates in controlled growth conditions (Aralab 600; long days 16:8h day/night cycle 60% relative humidity and 50-70 μmol m^−2 s^−1 of cool-white fluorescent light) at 22° C. or 28° C. temperature for 5-7d. Plates were photographed and hypocotyl length were measured using the ImageJ software (v.1.48v) (https:/imagej.nih.gov/ij/). For root growth analysis, seedlings were grown in vertically placed 0.5MS− media plates in controlled growth conditions (Aralab 600; long days 16:8h day/night cycle; 22° C.). MyROOT software (Betegón-Putzé et al., 2019) was used to compare root growth of plants. Lateral roots were manually counted under a stereozoom microscope in 9-d-old seedlings.

The target in experiment [1] is T1, BRI1 (BRASSINOSTEROID … 1), BiFC negative control (Arabidopsis, UniProt O22476 24-1196).
T1 construct: whole, on cells; not shown: the construct of this control is not described
T1 sequence (looked up): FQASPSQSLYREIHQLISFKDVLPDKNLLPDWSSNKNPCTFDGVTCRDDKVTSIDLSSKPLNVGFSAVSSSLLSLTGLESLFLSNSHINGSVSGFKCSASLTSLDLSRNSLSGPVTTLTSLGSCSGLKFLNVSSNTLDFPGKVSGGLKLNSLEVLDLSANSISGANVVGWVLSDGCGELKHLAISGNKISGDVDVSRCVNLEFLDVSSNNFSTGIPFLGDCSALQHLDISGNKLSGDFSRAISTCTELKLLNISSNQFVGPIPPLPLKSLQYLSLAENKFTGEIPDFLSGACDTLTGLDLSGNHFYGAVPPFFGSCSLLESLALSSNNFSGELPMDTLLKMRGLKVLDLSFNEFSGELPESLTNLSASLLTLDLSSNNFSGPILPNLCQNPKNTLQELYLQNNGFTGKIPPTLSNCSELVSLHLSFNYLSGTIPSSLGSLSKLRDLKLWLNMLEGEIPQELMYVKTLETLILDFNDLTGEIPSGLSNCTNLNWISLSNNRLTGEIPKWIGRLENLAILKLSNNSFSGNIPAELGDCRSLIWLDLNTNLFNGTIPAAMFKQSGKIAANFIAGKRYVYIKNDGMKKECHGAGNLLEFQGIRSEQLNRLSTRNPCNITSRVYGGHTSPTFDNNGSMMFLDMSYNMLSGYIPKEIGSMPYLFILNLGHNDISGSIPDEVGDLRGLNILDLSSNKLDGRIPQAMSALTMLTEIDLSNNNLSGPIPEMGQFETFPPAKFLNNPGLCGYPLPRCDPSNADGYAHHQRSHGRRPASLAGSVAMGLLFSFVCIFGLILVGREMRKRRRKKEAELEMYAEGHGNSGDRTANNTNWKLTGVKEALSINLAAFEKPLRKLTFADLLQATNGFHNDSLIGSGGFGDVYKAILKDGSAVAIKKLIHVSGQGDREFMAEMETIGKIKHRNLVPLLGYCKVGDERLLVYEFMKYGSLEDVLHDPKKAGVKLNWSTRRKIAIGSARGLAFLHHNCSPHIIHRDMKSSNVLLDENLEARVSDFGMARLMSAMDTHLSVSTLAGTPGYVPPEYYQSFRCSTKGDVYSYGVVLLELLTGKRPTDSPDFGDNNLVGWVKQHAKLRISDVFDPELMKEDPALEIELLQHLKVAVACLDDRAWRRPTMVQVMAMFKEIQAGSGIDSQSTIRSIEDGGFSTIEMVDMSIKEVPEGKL
Description: BiFC (split YFP) in Nicotiana benthamiana leaves, confocal microscopy.

Experiment [2] addresses B1. Described as above.

`CC(O)(c1ccccc1)C(Cc1ccc(Cl)cc1)n1cncn1` (stereo not drawn) [BRZ220, Brassinazole]: the hypocotyl size result with WT (Col-0) seedlings was “reduced hypocotyl size irrespective of the temperature”.

For the molecule B1, in experiment [1], the binding result was “no binding”.

B2: BKI1, BiFC negative control (other, UniProt Q9FMZ0 1-337, looked up)
chain: METNLQQVKNSSQTFSEKQNPKQEASPSPISSTCSSPSHDFSFTISLQPLSSSSKHISPTLRSPSKTTSSYQQTDPFAVDLSPADEIFFHGHLLPLHLLSHLPVSPRTSTGSYNDGFTLPVKDILPDQPTNNNNNTENAITNISTEAKDDNTEDKAEGEIRVKTKPIKSFSLFGLSKWRKGFESNEREQEQQQQKIKKPMSLDLSHAVKKYIRMLFQKRGNGTQFWNRRQTSSYSFSSSLMGPNGNSKTMINGSYNKRDLIRGRRGELFSAPASMRTSPTNSGHLRVSTAGLSSSSGSTSSSSSDSTMEELQAAIQAAIAHCKNSSAVDRDDKVKDS
notes: whole, on cells; not shown: the construct of this control is not described
Regarding B2, the binding result in experiment [2] is listed as “no binding”.
